Measurements from the supplement of paper PMC9112550, “Optimization of the antimicrobial peptide Bac7 by deep mutational scanning” (BMC Biology, 2022).

System: Escherichia coli TOP10
Test: shrunken log2 fold change of peptide-encoding DNA abundance (4.5 h post-induction vs induction); higher = less antimicrobial activity (less host growth inhibition)
Details: time post-induction: 4.5 h; library: site-saturation at positions 5, 18, 19, 20
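Further: peptides expressed intracellularly from a pBAD plasmid library in pooled LB shake-flask culture, induced with 0.3% L-arabinose, DNA abundance read by NGS, three biological replicates, DESeq2 with apeglm shrinkage.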

| Sequence | shrunken log2 fold change |
| --- | --- |
| RRIRMRPPRLPRPRPRPRKGPRP | 0.81 |
| RRIRARPPRLPRPRPRPKINPRP | -0.0292 |
| RRIRERPPRLPRPRPRPNTIPRP | -0.45 |
| RRIRDRPPRLPRPRPRPREYPRP | 0.306 |
| RRIRYRPPRLPRPRPRPQRAPRP | -0.374 |
| RRIRPRPPRLPRPRPRPYFTPRP | -0.882 |
| RRIRQRPPRLPRPRPRPIVFPRP | 0.161 |
| RRIRMRPPRLPRPRPRPLHWPRP | 0.116 |
| RRIRWRPPRLPRPRPRPRHPPRP | 0.382 |
| RRIRFRPPRLPRPRPRPQEHPRP | -0.115 |
| RRIRFRPPRLPRPRPRPCANPRP | 0.133 |
| RRIRVRPPRLPRPRPRPWDEPRP | -0.334 |
| RRIRQRPPRLPRPRPRPLVVPRP | 0.0686 |
| RRIRDRPPRLPRPRPRPNVQPRP | -0.131 |
| RRIRMRPPRLPRPRPRPSIQPRP | 0.0104 |
| RRIRARPPRLPRPRPRPPEIPRP | 0.301 |
| RRIRNRPPRLPRPRPRPQPGPRP | 0.285 |
| RRIRYRPPRLPRPRPRPYAFPRP | -0.0129 |
| RRIRGRPPRLPRPRPRPNMWPRP | 0.274 |
| RRIRCRPPRLPRPRPRPECMPRP | 0.119 |
| RRIRRRPPRLPRPRPRPTFHPRP | 0.0529 |
| RRIRKRPPRLPRPRPRPEPEPRP | 1.34 |
| RRIRNRPPRLPRPRPRPPCIPRP | -0.662 |
| RRIRERPPRLPRPRPRPDFKPRP | 0.0659 |
| RRIRCRPPRLPRPRPRPLFSPRP | 2.05 |

| Sequence | shrunken log2 fold change |
| --- | --- |
| RRIRWRPPRLPRPRPRPVPGPRP | 0.491 |
| RRIRFRPPRLPRPRPRPDVQPRP | -0.0115 |
| RRIRSRPPRLPRPRPRPSVYPRP | -0.81 |
| RRIRRRPPRLPRPRPRPDTYPRP | -0.193 |
| RRIRIRPPRLPRPRPRPSYWPRP | -0.781 |
| RRIRCRPPRLPRPRPRPGKYPRP | -0.316 |
| RRIRERPPRLPRPRPRPGHPPRP | 0.143 |
| RRIRKRPPRLPRPRPRPNWSPRP | 0.139 |
| RRIRSRPPRLPRPRPRPRFPPRP | 0.198 |
| RRIRKRPPRLPRPRPRPYSGPRP | -0.839 |
| RRIRMRPPRLPRPRPRPQSWPRP | 0.141 |
| RRIRLRPPRLPRPRPRPGITPRP | -0.322 |
| RRIRMRPPRLPRPRPRPYRPPRP | -0.117 |
| RRIRWRPPRLPRPRPRPAAYPRP | 0.346 |
| RRIRKRPPRLPRPRPRPMPVPRP | -0.00341 |
| RRIRFRPPRLPRPRPRPHLIPRP | -0.415 |
| RRIRVRPPRLPRPRPRPQCNPRP | -0.449 |
| RRIRFRPPRLPRPRPRPYDLPRP | -1.02 |
| RRIRIRPPRLPRPRPRPEHHPRP | -0.206 |
| RRIRIRPPRLPRPRPRPNCQPRP | -0.367 |
| RRIRDRPPRLPRPRPRPMEEPRP | -0.00277 |
| RRIRLRPPRLPRPRPRPDQYPRP | -0.014 |
| RRIRWRPPRLPRPRPRPAPGPRP | 0.634 |
| RRIRNRPPRLPRPRPRPAFRPRP | 0.0513 |
| RRIRWRPPRLPRPRPRPVENPRP | -0.101 |

| Sequence | shrunken log2 fold change |
| --- | --- |
| RRIRIRPPRLPRPRPRPRCGPRP | 0.0437 |
| RRIRDRPPRLPRPRPRPTHIPRP | -0.656 |
| RRIRYRPPRLPRPRPRPTEFPRP | -0.465 |
| RRIRSRPPRLPRPRPRPIVWPRP | -0.0774 |
| RRIRARPPRLPRPRPRPRNVPRP | 0.0957 |
| RRIRWRPPRLPRPRPRPMSLPRP | -0.0247 |
| RRIRYRPPRLPRPRPRPCGIPRP | -0.00192 |
| RRIRWRPPRLPRPRPRPASMPRP | -0.0478 |
| RRIRFRPPRLPRPRPRPGAHPRP | -0.126 |
| RRIRQRPPRLPRPRPRPTGKPRP | -0.00964 |
| RRIRVRPPRLPRPRPRPPETPRP | -0.0362 |
| RRIRKRPPRLPRPRPRPRALPRP | 0.396 |
| RRIRLRPPRLPRPRPRPDAGPRP | 0.0316 |
| RRIRPRPPRLPRPRPRPNQCPRP | -0.0767 |
| RRIRGRPPRLPRPRPRPNNAPRP | 0.0616 |
| RRIRWRPPRLPRPRPRPVPQPRP | 0.282 |
| RRIRFRPPRLPRPRPRPCWYPRP | -0.225 |
| RRIRMRPPRLPRPRPRPSHYPRP | -0.201 |
| RRIRRRPPRLPRPRPRPWTQPRP | -0.0997 |
| RRIRWRPPRLPRPRPRPKGMPRP | -0.159 |
| RRIRTRPPRLPRPRPRPEACPRP | -0.1 |
| RRIRFRPPRLPRPRPRPEMHPRP | -0.195 |
| RRIRQRPPRLPRPRPRPSALPRP | -0.0016 |
| RRIRPRPPRLPRPRPRPMVTPRP | -0.0789 |
| RRIRARPPRLPRPRPRPFRKPRP | 0.00339 |

| Sequence | shrunken log2 fold change |
| --- | --- |
| RRIRQRPPRLPRPRPRPENFPRP | -0.00776 |
| RRIRWRPPRLPRPRPRPPEGPRP | 0.163 |
| RRIRTRPPRLPRPRPRPNLMPRP | -0.164 |
| RRIRQRPPRLPRPRPRPAKPPRP | -0.0548 |
| RRIRFRPPRLPRPRPRPTSAPRP | 0.344 |
| RRIRSRPPRLPRPRPRPGCEPRP | 0.145 |
| RRIRWRPPRLPRPRPRPELMPRP | 0.0289 |
| RRIRVRPPRLPRPRPRPNRHPRP | -0.195 |
| RRIRKRPPRLPRPRPRPKNFPRP | -0.148 |
| RRIRSRPPRLPRPRPRPNDNPRP | -0.57 |
| RRIRLRPPRLPRPRPRPTVNPRP | -0.119 |
| RRIRPRPPRLPRPRPRPTLPPRP | 0.309 |
| RRIRYRPPRLPRPRPRPWWDPRP | -0.266 |
| RRIRIRPPRLPRPRPRPSRYPRP | -0.759 |
| RRIRYRPPRLPRPRPRPRPMPRP | -0.227 |
| RRIRSRPPRLPRPRPRPGTHPRP | -0.146 |
| RRIRWRPPRLPRPRPRPWHIPRP | 0.106 |
| RRIRPRPPRLPRPRPRPIGFPRP | 0.2 |
| RRIRDRPPRLPRPRPRPEQYPRP | 0.215 |
| RRIRIRPPRLPRPRPRPVIKPRP | -0.918 |
| RRIRQRPPRLPRPRPRPCQEPRP | -0.015 |
| RRIRWRPPRLPRPRPRPEVWPRP | 0.966 |
| RRIRPRPPRLPRPRPRPHWRPRP | 0.0957 |
| RRIRHRPPRLPRPRPRPSEPPRP | -0.206 |
| RRIRKRPPRLPRPRPRPQACPRP | -0.109 |

| Sequence | shrunken log2 fold change |
| --- | --- |
| RRIRTRPPRLPRPRPRPWGLPRP | 0.00838 |
| RRIRHRPPRLPRPRPRPRNVPRP | -0.00885 |
| RRIRTRPPRLPRPRPRPFIVPRP | -0.265 |
| RRIRMRPPRLPRPRPRPDDEPRP | 0.123 |
| RRIRVRPPRLPRPRPRPHMWPRP | -0.49 |
| RRIRDRPPRLPRPRPRPPYKPRP | -0.1 |
| RRIRMRPPRLPRPRPRPQMHPRP | 0.947 |
| RRIRERPPRLPRPRPRPNRMPRP | -1.36 |
| RRIRSRPPRLPRPRPRPCDCPRP | -0.239 |
| RRIRRRPPRLPRPRPRPQNRPRP | 0.318 |
| RRIRFRPPRLPRPRPRPCNAPRP | -0.23 |
| RRIRYRPPRLPRPRPRPTYFPRP | -0.485 |
| RRIRCRPPRLPRPRPRPCLDPRP | 0.11 |
| RRIRWRPPRLPRPRPRPWEDPRP | -0.0135 |
| RRIRWRPPRLPRPRPRPSDNPRP | -0.14 |
| RRIRRRPPRLPRPRPRPNDSPRP | -0.286 |
| RRIRSRPPRLPRPRPRPQMNPRP | -0.227 |
| RRIRRRPPRLPRPRPRPWIHPRP | -0.147 |
| RRIRFRPPRLPRPRPRPEDNPRP | -0.00777 |
| RRIRCRPPRLPRPRPRPPCDPRP | 0.242 |
| RRIRTRPPRLPRPRPRPQSWPRP | 0.234 |
| RRIRIRPPRLPRPRPRPLTFPRP | -0.173 |
| RRIRWRPPRLPRPRPRPFQAPRP | -0.222 |
| RRIRMRPPRLPRPRPRPMQEPRP | 0.0303 |
| RRIRTRPPRLPRPRPRPSCAPRP | -0.127 |

| Sequence | shrunken log2 fold change |
| --- | --- |
| RRIRKRPPRLPRPRPRPGVRPRP | 1.16 |
| RRIRCRPPRLPRPRPRPNSEPRP | -0.398 |
| RRIRGRPPRLPRPRPRPDEQPRP | -0.0342 |
| RRIRKRPPRLPRPRPRPEHVPRP | 0.0142 |
| RRIRPRPPRLPRPRPRPEEVPRP | 0.0532 |
| RRIRQRPPRLPRPRPRPDCWPRP | -0.0539 |
| RRIRARPPRLPRPRPRPLGMPRP | 0.0985 |
| RRIRWRPPRLPRPRPRPVHMPRP | -0.0785 |
| RRIRMRPPRLPRPRPRPRQYPRP | -0.0556 |
| RRIRLRPPRLPRPRPRPTRTPRP | 0.243 |
| RRIRARPPRLPRPRPRPHDLPRP | 0.084 |
| RRIRPRPPRLPRPRPRPGMHPRP | 0.206 |
| RRIRYRPPRLPRPRPRPYCIPRP | -1.32 |
| RRIRARPPRLPRPRPRPNNGPRP | 0.00213 |
| RRIRMRPPRLPRPRPRPNLGPRP | -0.0136 |
| RRIRVRPPRLPRPRPRPSNLPRP | -0.586 |
| RRIRHRPPRLPRPRPRPPINPRP | -0.294 |
| RRIRHRPPRLPRPRPRPIKYPRP | -0.194 |
| RRIRRRPPRLPRPRPRPCMAPRP | 0.61 |
| RRIRLRPPRLPRPRPRPIGHPRP | -0.212 |
| RRIRIRPPRLPRPRPRPFDFPRP | -0.181 |
| RRIRFRPPRLPRPRPRPYRFPRP | -0.243 |
| RRIRMRPPRLPRPRPRPRMDPRP | 0.356 |
| RRIRDRPPRLPRPRPRPLLAPRP | 1.2 |
| RRIRRRPPRLPRPRPRPHVWPRP | 0.242 |
